Experimental data as given in patent US20200246472A1.
Square brackets hold non-standard residues; d marks the D form. Ends that are not written are not given here. Dmt = Cc1cc(O)cc(C)c1C[C@H](N)C(=O)O

B1: CM-56 (peptide)
peptide: [Dmt]PFFQFQFK-NH2
modifications: N-terminus assumed
SMILES: Cc1cc(O)cc(C)c1C[C@H](N)C(=O)N1CCC[C@H]1C(=O)N[C@@H](Cc1ccccc1)C(=O)N[C@@H](Cc1ccccc1)C(=O)N[C@@H](CCC(N)=O)C(=O)N[C@@H](Cc1ccccc1)C(=O)N[C@@H](CCC(N)=O)C(=O)N[C@@H](Cc1ccccc1)C(=O)N[C@@H](CCCCN)C(N)=O
B2: CM-58 (peptide)
peptide: [Dmt]PWFQFQFK-NH2
modifications: N-terminus assumed
SMILES: Cc1cc(O)cc(C)c1C[C@H](N)C(=O)N1CCC[C@H]1C(=O)N[C@@H](Cc1c[nH]c2ccccc12)C(=O)N[C@@H](Cc1ccccc1)C(=O)N[C@@H](CCC(N)=O)C(=O)N[C@@H](Cc1ccccc1)C(=O)N[C@@H](CCC(N)=O)C(=O)N[C@@H](Cc1ccccc1)C(=O)N[C@@H](CCCCN)C(N)=O

Assays:
Experiment in all cases: binding test (Ki), method not described
DOR = biological target: DOR
KOR = biological target: KOR
MOR = biological target: MOR
Sequence of MOR (P35372 whole entry): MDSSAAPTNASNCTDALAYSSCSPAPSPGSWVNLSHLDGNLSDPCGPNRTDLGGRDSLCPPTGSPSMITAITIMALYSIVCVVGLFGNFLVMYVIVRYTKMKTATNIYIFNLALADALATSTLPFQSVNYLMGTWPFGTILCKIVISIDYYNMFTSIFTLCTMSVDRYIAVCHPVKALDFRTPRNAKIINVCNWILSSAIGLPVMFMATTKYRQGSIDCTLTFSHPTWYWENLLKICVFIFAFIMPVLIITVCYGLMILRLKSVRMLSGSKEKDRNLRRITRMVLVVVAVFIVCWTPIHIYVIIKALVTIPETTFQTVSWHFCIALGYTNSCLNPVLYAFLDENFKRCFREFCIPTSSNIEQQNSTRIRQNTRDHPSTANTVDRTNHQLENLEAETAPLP

| Binder | Ki (DOR) [nM] | Ki (KOR) [nM] | Ki (MOR) [nM] |
| --- | --- | --- | --- |
| B1 | 176 | 337 | 65 |
| B2 | 15 | 120 | 7.5 |
